# Source: patent publication US11230581B2, “Peptides and combination of peptides for use in immunotherapy against ovarian cancer and other cancers” (Immatics Biotechnologies GmbH, priority 2015, dated 2022)
# Molecular target: HLA-A*02:01 (Homo sapiens, UniProt P04439, D140Y/D185E/D98H/E176V/E277Q/G131W/G231S/I119V/I121R/I166T/I218V/L300P/L318F/N151K/N90K/P208A/P217A/Q86G/Q94H/R138H/R169H/T345S)
# Assay: MHC binding assay (UV-ligand exchange, β2m ELISA, peptide exchange yield)
# Details: binding of HLA-class I restricted peptides to HLA-A*02:01, UV-ligand exchange
# Excerpt: Candidate peptides for T cell based therapies according to the present invention were further tested for their MHC binding capacity (affinity). The individual peptide-MHC complexes were produced by UV-ligand exchange, where a UV-sensitive peptide is cleaved upon UV-irradiation, and exchanged with the peptide of interest as analyzed. Only peptide candidates that can effectively bind and stabilize the peptide-receptive MHC molecules prevent dissociation of the MHC complexes. To determine the yield of the exchange reaction, an ELISA was performed based on the detection of the light chain (β2m) of stabilized MHC complexes. The assay was performed as generally described in Rodenko et al. (Rodenko et al., 2006).
# 96 well MAXISorp plates (NUNC) were coated over night with 2 ug/ml streptavidin in PBS at room temperature, washed 4× and blocked for 1h at 37° C. in 2% BSA containing blocking buffer. […] Peptide-MHC monomers of the UV-exchange reaction were diluted 100 fold in blocking buffer. Samples were incubated for 1 h at 37° C., washed four times, incubated with 2 ug/ml HRP conjugated anti-β2m for 1h at 37° C., washed again and detected with TMB solution that is stopped with […]. Absorption was measured at 450 nm. Candidate peptides that show a high exchange yield (preferably higher than 50%, most preferred higher than 75%) are generally preferred for a generation and production of antibodies or fragments thereof, and/or T cell receptors or fragments thereof, as they show sufficient avidity to the MHC molecules and prevent dissociation of the MHC complexes.
row,"Peptide exchange (MHC class I binding score, peptide exchange yield)",Substance
1,“+++” (≥50 = +++),1 (SLMEPPAVLLL; listed as Homo sapiens) [compound 1]
2,“+++” (≥50 = +++),2 (SLLEADPFL; listed as Homo sapiens) [compound 2]
3,“++++” (≥75% = ++++),3 (SLASKLTTL; listed as Homo sapiens) [compound 3]
4,“++++” (≥75% = ++++),4 (GIMEHITKI; listed as Homo sapiens) [compound 4]
5,“+++” (≥50 = +++),5 (HLTEVYPEL; listed as Homo sapiens) [compound 5]
6,“+++” (≥50 = +++),6 (VLVSDGVHSV; listed as Homo sapiens) [compound 6]
7,“++++” (≥75% = ++++),7 (SLVGLLLYL; listed as Homo sapiens) [compound 7]
8,“++++” (≥75% = ++++),8 (FTLGNVVGMYL; listed as Homo sapiens) [compound 8]
9,“++” (≥20% = ++),9 (GAAKDLPGV; listed as Homo sapiens) [compound 9]
10,“++++” (≥75% = ++++),10 (FLATFPLAAV; listed as Homo sapiens) [compound 10]
11,“+++” (≥50 = +++),11 (KIFEMLEGV; listed as Homo sapiens) [compound 11]
12,“+++” (≥50 = +++),12 (SLWPDPMEV; listed as Homo sapiens) [compound 12]
13,“+++” (≥50 = +++),13 (YLMDESLNL; listed as Homo sapiens) [compound 13]
14,“+++” (≥50 = +++),14 (AAYGGLNEKSFV; listed as Homo sapiens) [compound 14]
15,“++” (≥20% = ++),15 (VLLTFKIFL; listed as Homo sapiens) [compound 15]
16,“+++” (≥50 = +++),16 (VLFQGQASL; listed as Homo sapiens) [compound 16]
17,“+++” (≥50 = +++),17 (GLLPGDRLVSV; listed as Homo sapiens) [compound 17]
18,“++” (≥20% = ++),18 (YLVAKLVEV; listed as Homo sapiens) [compound 18]
19,“++++” (≥75% = ++++),19 (FMVDNEAIYDI; listed as Homo sapiens) [compound 19]
20,“+++” (≥50 = +++),20 (RMIEYFIDV; listed as Homo sapiens) [compound 20]
21,“++” (≥20% = ++),21 (VLDELDMEL; listed as Homo sapiens) [compound 21]

row,"Peptide exchange (MHC class I binding score, peptide exchange yield)",Substance
1,“+++” (≥50 = +++),22 (IMEENPGIFAV; listed as Homo sapiens) [compound 22]
2,“+++” (≥50 = +++),23 (VLLDDIFAQL; listed as Homo sapiens) [compound 23]
3,“++” (≥20% = ++),24 (SLSDGLEEV; listed as Homo sapiens) [compound 24]
4,“+++” (≥50 = +++),25 (FLPDEPYIKV; listed as Homo sapiens) [compound 25]
5,“+++” (≥50 = +++),26 (ALLELAEEL; listed as Homo sapiens) [compound 26]
6,“+++” (≥50 = +++),27 (ILADIVISA; listed as Homo sapiens) [compound 27]
7,“+++” (≥50 = +++),28 (QLLDETSAITL; listed as Homo sapiens) [compound 28]
8,“+++” (≥50 = +++),29 (KMLGIPISNILMV; listed as Homo sapiens) [compound 29]
9,“+++” (≥50 = +++),30 (LILDWVPYI; listed as Homo sapiens) [compound 30]
10,“++” (≥20% = ++),31 (YLAPELFVNV; listed as Homo sapiens) [compound 31]
11,“++” (≥20% = ++),32 (KLDDLTQDLTV; listed as Homo sapiens) [compound 32]
12,“++” (≥20% = ++),33 (VLLSLLEKV; listed as Homo sapiens) [compound 33]
13,“+++” (≥50 = +++),34 (ILVEADSLWVV; listed as Homo sapiens) [compound 34]
14,“+++” (≥50 = +++),35 (KINDTIYEV; listed as Homo sapiens) [compound 35]
15,“++” (≥20% = ++),36 (YVLEDLEVTV; listed as Homo sapiens) [compound 36]
16,“+++” (≥50 = +++),38 (FLLEDDIHVS; listed as Homo sapiens) [compound 38]
17,“+++” (≥50 = +++),39 (SVAPNLPAV; listed as Homo sapiens) [compound 39]
18,“+++” (≥50 = +++),40 (TLLVKVFSV; listed as Homo sapiens) [compound 40]
19,“+++” (≥50 = +++),41 (SLMPHIPGL; listed as Homo sapiens) [compound 41]
20,“+++” (≥50 = +++),42 (VLLQKIVSA; listed as Homo sapiens) [compound 42]
21,“++” (≥20% = ++),43 (VLSSLEINI; listed as Homo sapiens) [compound 43]

row,"Peptide exchange (MHC class I binding score, peptide exchange yield)",Substance
1,“++” (≥20% = ++),44 (ILDPISSGFLL; listed as Homo sapiens) [compound 44]
2,“+++” (≥50 = +++),45 (SLWQDIPDV; listed as Homo sapiens) [compound 45]
3,“+++” (≥50 = +++),46 (ILTEENIHL; listed as Homo sapiens) [compound 46]
4,“++” (≥20% = ++),47 (ILLSVPLLVV; listed as Homo sapiens) [compound 47]
5,“+++” (≥50 = +++),48 (ALAELYEDEV; listed as Homo sapiens) [compound 48]
6,“+++” (≥50 = +++),49 (YLPAVFEEV; listed as Homo sapiens) [compound 49]
7,“+++” (≥50 = +++),50 (SLSELEALM; listed as Homo sapiens) [compound 50]
8,“++++” (≥75% = ++++),51 (LLPDLEFYV; listed as Homo sapiens) [compound 51]
9,“++++” (≥75% = ++++),52 (FLLAHGLGFLL; listed as Homo sapiens) [compound 52]
10,“++++” (≥75% = ++++),53 (KMIETDILQKV; listed as Homo sapiens) [compound 53]
11,“+++” (≥50 = +++),54 (SLLEQGKEPWMV; listed as Homo sapiens) [compound 54]
12,“++++” (≥75% = ++++),55 (SLLDLETLSL; listed as Homo sapiens) [compound 55]
13,“++++” (≥75% = ++++),56 (KLYEGIPVLL; listed as Homo sapiens) [compound 56]
14,“+++” (≥50 = +++),57 (TLAELQPPVQL; listed as Homo sapiens) [compound 57]
15,“+++” (≥50 = +++),59 (IMEDIILTL; listed as Homo sapiens) [compound 59]
16,“++++” (≥75% = ++++),60 (SLTIDGIYYV; listed as Homo sapiens) [compound 60]
17,“++++” (≥75% = ++++),61 (FLQGYQLHL; listed as Homo sapiens) [compound 61]
18,“++++” (≥75% = ++++),62 (VLLDVSAGQLLM; listed as Homo sapiens) [compound 62]
19,“++” (≥20% = ++),63 (YLLPSGGSVTL; listed as Homo sapiens) [compound 63]
20,“++” (≥20% = ++),64 (YAAPGGLIGV; listed as Homo sapiens) [compound 64]
